Measured values reported in PMC5877952 (Proceedings of the National Academy of Sciences of the …, 2018).

Target: T1, SAX-3–Flag (C. elegans, UniProt G5EBF1 24-1273)
T1 sequence (looked up): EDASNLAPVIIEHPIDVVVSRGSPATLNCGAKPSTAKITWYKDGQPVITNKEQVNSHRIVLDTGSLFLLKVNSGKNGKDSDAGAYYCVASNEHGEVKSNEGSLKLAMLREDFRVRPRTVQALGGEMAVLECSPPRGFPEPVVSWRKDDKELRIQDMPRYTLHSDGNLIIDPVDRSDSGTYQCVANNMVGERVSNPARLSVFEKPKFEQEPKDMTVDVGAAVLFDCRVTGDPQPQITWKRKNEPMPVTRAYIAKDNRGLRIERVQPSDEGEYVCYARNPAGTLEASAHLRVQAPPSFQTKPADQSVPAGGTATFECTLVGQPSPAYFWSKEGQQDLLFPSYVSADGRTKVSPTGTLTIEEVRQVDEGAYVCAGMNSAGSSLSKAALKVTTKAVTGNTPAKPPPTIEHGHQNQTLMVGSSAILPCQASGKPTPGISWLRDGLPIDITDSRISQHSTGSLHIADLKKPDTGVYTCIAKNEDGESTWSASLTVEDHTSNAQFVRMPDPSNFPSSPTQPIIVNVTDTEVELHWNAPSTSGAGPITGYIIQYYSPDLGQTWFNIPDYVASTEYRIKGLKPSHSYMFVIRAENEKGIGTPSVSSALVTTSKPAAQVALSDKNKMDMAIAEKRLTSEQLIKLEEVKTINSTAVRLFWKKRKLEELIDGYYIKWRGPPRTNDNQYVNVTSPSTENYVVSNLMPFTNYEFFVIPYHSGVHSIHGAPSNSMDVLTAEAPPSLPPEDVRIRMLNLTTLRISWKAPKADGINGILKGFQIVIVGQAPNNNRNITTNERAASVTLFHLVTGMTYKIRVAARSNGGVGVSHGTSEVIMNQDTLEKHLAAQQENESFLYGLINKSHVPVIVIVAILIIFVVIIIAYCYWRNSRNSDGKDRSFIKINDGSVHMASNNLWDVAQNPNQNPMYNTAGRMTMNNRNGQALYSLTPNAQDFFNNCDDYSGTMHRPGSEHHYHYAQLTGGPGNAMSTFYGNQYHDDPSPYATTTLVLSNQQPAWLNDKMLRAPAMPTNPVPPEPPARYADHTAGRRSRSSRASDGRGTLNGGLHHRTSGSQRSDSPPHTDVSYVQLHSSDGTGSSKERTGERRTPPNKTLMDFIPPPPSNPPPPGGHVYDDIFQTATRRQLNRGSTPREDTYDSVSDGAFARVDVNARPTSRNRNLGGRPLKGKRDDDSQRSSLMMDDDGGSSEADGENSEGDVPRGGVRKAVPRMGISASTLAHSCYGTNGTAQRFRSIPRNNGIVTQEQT
Assay: pull-down

- binding result: binds
B1: CWN-2–GST (ligand, C. elegans, UniProt P34889 38-360, looked up)
chain: AGHNVKPVCELPGLSPGQAQVCELFKDHMPAVSIGAQNAIQECQRQFTGHRWNCSTHYSTGMLGPIHKMATREAAFTYAILSAGVTHEIGRRCKQGLLTSCGCSDETKPKNVPTDWSWGGCGDNVEYGYKFSRDFIDIREKEHDPKRNHDNGRSLMNRRNNEAGRKILKRHRKPKCKCHGVSGACNMKTCWMQLPSMEQVGKILRNKYDKAIRVQINDRGNLQLLADEATKERKTRALPTDLVFMDDSPDYCRFDRHSGTLGTEGRVCKRGSGGAEGCDSLCCGRGYNTYTQEVKSKCNCKFEWCCKVVCQTCNNVTQVDICK
